Measurements: patent US20220356267A1

Key:
[1] = biological target: CD73 on A549 cells (UniProt P21589); experiment: cell-based or functional assay
[2] = biological target: recombinant human CD73 protein (ecto-5'-nucleotidase), expressed by the applicant, C-terminal 6x His tag (human) (UniProt P21589); experiment: cell-based or functional assay
[3] = biological target: recombinant human CD73 protein (ecto-5'-nucleotidase), expressed by the applicant, C-terminal 6x His tag (human) (UniProt P21589); experiment: SPR, Biacore T200, antibody captured, human CD73 injected, 25 °C, 1:1 fit

MEDI-9447 (antibody)
EC50 (µg/mL), Cell level (A549 cells), inhibition of the enzyme activity of CD73 [1]: 0.113 µg/mL
EC50 (µg/mL), Biochemical level, inhibition of the enzyme activity of CD73 [2]: 0.188 µg/mL
Kd [3]: 0.107 nM
koff [3]: 6.9e-05 s⁻¹
kon [3]: 647000 M⁻¹ s⁻¹
